According to publication PMC4066779:
pKd: −log10 of the molar value.

Test system: GST-DDX6 (human)
Experiment: EMSA

CUG-200 RNA
pKd: > 6.60
